The results in this text go back to doi:10.1101/737098.

This experiment deals with wild-type KRAS4b GTPase domain (1-169), GMPPNP-bound (human) (UniProt P01116). The experiment can be described thus: ITC.

In turn, “NF1-GRD (GAP-related domain of neurofibromin 1) (from UniProt P21359-2 1198-1530) (domain or fragment)” had a Kd of 1000 nM.
